Paper PMC11423328, “Catalytic Redundancies and Conformational Plasticity Drives Selectivity and Promiscuity in Quorum Quenching Lactonases” (JACS Au, 2024)
Changes are numbered by the printed parent chain. In names and notes the source's numbering stands.

B1: GcL (Parageobacillus caldoxylosilyticus NBRC 107762; Y222F) (protein)
chain: MANVIKARPKLYVMDNGRMRMDKNWMIAMHNPATIHNPNAQTEFVEFPIYTVLIDHPEGKILFDTSCNPNSMGPQGRWAESTQQMFPWTATEECYLHNRLEQLKVRPEDIRYVVASHLHLDHAGCLEMFTNATIIVHEDEFNGALQCYARNQKEGAYIWADIDAWIKNNLQWRTVKRHEDNILLAEGVKVLNFGSGHAWGMLGLHVELPETGGIILASDAIFTAESYGPPIKPPGIIYDSLGYMNTVERIRRIAQETKSQVWFGHDAEQFKKFRKSTEGYYE
notes: expressed in E. coli BL21(DE3)-pGro7/GroEL with CoCl2; bimetallic Fe/Co centre; dimer
B2: GcL (Parageobacillus caldoxylosilyticus NBRC 107762; I236M) (protein)
chain: B1 chain with F222Y, I236M
notes: as for B1
B3: GcL (Parageobacillus caldoxylosilyticus NBRC 107762; A156S) (protein)
chain: B1 chain with A156S, F222Y
notes: as for B1
B4: GcL (Parageobacillus caldoxylosilyticus NBRC 107762; A156G) (protein)
chain: B1 chain with A156G, F222Y
notes: as for B1
B5: GcL (Parageobacillus caldoxylosilyticus NBRC 107762; G155P) (protein)
chain: B1 chain with G155P, F222Y
notes: as for B1
B6: GcL (Parageobacillus caldoxylosilyticus NBRC 107762; D121N) (protein)
chain: B1 chain with D121N, F222Y
notes: as for B1

Key:
[1] = target: T1, GcL (Parageobacillus caldoxylosilyticus, UniProt A0A023DFE8, A156S); assay: 4-nitrophenolate release at […] nm; assay type: biochemical; conditions: 50 mM HEPES pH 8.0 (methods; table note pH 8.3), 150 mM NaCl, CoCl2, 25 °C
T1 construct: gene GCA01S_030_00190; expressed in E. coli BL21(DE3)-pGro7/GroEL with CoCl2; bimetallic Fe/Co centre; dimer
T1 sequence (A0A023DFE8 entry or part of it A156S): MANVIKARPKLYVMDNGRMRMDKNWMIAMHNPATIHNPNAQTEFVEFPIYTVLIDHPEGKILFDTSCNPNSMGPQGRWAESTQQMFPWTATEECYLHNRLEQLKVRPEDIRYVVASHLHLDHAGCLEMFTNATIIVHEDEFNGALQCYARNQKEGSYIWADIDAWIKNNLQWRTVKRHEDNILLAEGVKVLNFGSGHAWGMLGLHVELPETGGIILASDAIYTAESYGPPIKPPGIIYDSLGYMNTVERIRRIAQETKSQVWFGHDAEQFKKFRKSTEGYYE

[2] = substrate: CCCC(=O)N[C@H]1CCOC1=O; assay: purified protein; assay type: biochemical, Parageobacillus caldoxylosilyticus; conditions: pH 8.3, 25 °C, 2.5 mM bicine, 150 mM NaCl, 0.2 mM CoCl2
[3] = substrate: CCCCCC(=O)N[C@H]1CCOC1=O; assay: purified protein; assay type: biochemical, Parageobacillus caldoxylosilyticus; conditions: pH 8.3, 25 °C, 2.5 mM bicine, 150 mM NaCl, 0.2 mM CoCl2
[4] = substrate: CCCCCCCC(=O)N[C@H]1CCOC1=O; assay: purified protein; assay type: biochemical, Parageobacillus caldoxylosilyticus; conditions: pH 8.3, 25 °C, 2.5 mM bicine, 150 mM NaCl, 0.2 mM CoCl2

Row | Molecule | Km [1] [µM] | Km [2] [µM] | kcat [2] [s⁻¹] | kcat/Km [2] [M⁻¹ s⁻¹] | Km [3] [µM] | kcat [3] [s⁻¹] | kcat/Km [3] [M⁻¹ s⁻¹] | Km [4] [µM] | kcat [4] [s⁻¹] | kcat/Km [4] [M⁻¹ s⁻¹]
1 | CCOP(=O)(OCC)Oc1ccc([N+](=O)[O-])cc1 [Paraoxon, paraoxon ethyl] | 964 ± 136 |  |  |  |  |  |  |  |  | 
2 | B1 |  | 758 ± 275 | 0.79 ± 0.15 | 1040 ± 430 | 92.7 ± 36.7 | 5.01 ± 0.46 | 54100 ± 21900 |  |  | 
3 | B2 |  |  |  |  | 2.38 ± 0.68 | 0.95 ± 0.04 | 399000 ± 115000 |  |  | 
4 | B3 |  | 475 ± 103 | 24.9 ± 2.52 | 52400 ± 12500 |  |  |  |  |  | 
5 | B4 |  |  |  |  |  |  |  | 19.34 ± 3.28 | 7.97 ± 0.33 | 412000 ± 72000
6 | B5 |  |  |  |  | 563 ± 150 | 2.44 ± 0.31 | 4340 ± 1280 | 8.22 ± 2.92 | 1.44 ± 0.09 | 175000 ± 63000
7 | B6 |  | 41.0 ± 9.14 | 1.74 ± 0.1 | 42500 ± 9800 | 13.0 ± 6.16 | 2.6 ± 0.24 | 200000 ± 96000 |  |  | 
